According to article PMC4420250:

Molecular target: autoinducing peptide 1 (AIP1), active (cyclized), N-terminally biotinylated (Staphylococcus aureus)

Q: For human LDL (apoB100) (natural protein), which IC50 of inhibition of agr::P3-yfp promoter activation in S. aureus AH1677 (agr-I) cultured with 50 nM exogenous AIP1 and increasing concentrations of lipoprotein is on record?
A: 2.3 nM

Q: “apoB48-containing lipoprotein particles (apoB48-LP) from serum of ApoE-/- mice (natural protein)” was tested. Which IC50 of inhibition of agr::P3-yfp promoter activation in S. aureus AH1677 (agr-I) cultured with 50 nM exogenous AIP1 and increasing concentrations of lipoprotein did it give?
A: 3.5 nM
